B1: CD3 × CD33-BspAb85 (bispecific antibody)
chain 1: EVQLVESGGGLVKPGGSLRLSCAASGFTFSSYSMNWVRQAPGKCLEWVSSISRSSGYIFYADSVKGRFTISRDNAKNSLYLQMNSLRAEDTAVYYCVRERVGAGFDYWGQGTLVTVSSGGGGSGGGGSGGGGSGGGGSNFMLTQPHSVSESPGKTVAISCTRSSGSIASNYVQWYQQRPGSSPTAVIYEDNQRPSGVPDRFSGSIDSSSNSAFLTISGLKTEDEADYYCQSYDSSNRVFGCGTKLTVLDKTHTCPPCPAPEFEGGPSVFLFPPKPKDTLMISRTPEVTCVVVDVSHEDPEVKFNWYVDGVEVHNAKTKPREEQYNSTYRVVSVLTVLHQDWLNGKEYKCKVSNKALPASIEKTISKAKGQPREPQVYTLPPCREEMTKNQVSLWCLVKGFYPSDIAVEWESNGQPENNYKTTPPVLDSDGSFFLYSKLTVDKSRWQQGNVFSCSVMHEALHNHYTQKSLSLSPGK
chain 2: EVQLVQSGAEVKKPGSSVKVSCKASGYTITDSNIHWVRQAPGQSLEWIGYIYPYNGGTDYNQKFKNRATLTVDNPTNTAYMELSSLRSEDTAFYYCVNGNPWLAYWGQGTLVTVSSASTKGPSVFPLAPSSKSTSGGTAALGCLVKDYFPEPVTVSWNSGALTSGVHTFPAVLQSSGLYSLSSVVTVPSSSLGTQTYICNVNHKPSNTKVDKRVEPKSCDKTHTCPPCPAPEFEGGPSVFLFPPKPKDTLMISRTPEVTCVVVDVSHEDPEVKFNWYVDGVEVHNAKTKPREEQYNSTYRVVSVLTVLHQDWLNGKEYKCKVSNKALPASIEKTISKAKGQPREPQVCTLPPSREEMTKNQVSLSCAVKGFYPSDIAVEWESNGQPENNYKTTPPVLDSDGSFFLVSKLTVDKSRWQQGNVFSCSVMHEALHNRFTQKSLSLSPGK
chain 3: DIQLTQSPSTLSASVGDRVTITCRASESLDNYGIRFLTWFQQKPGKAPKLLMYAASNQGSGVPSRFSGSGSGTEFTLTISSLQPDDFATYYCQQTKEVPWSFGQGTKVEVKRTVAAPSVFIFPPSDEQLKSGTASVVCLLNNFYPREAKVQWKVDNALQSGNSQESVTEQDSKDSTYSLSSTLTLSKADYEKHKVYACEVTHQGLSSPVTKSFNRGEC
B2: CD3 × CD33-BspAb90 (bispecific antibody)
chain 1: not shown
chain 2: B1 chain 2
chain 3: B1 chain 3
B3: CD3 × CD33-BspAb115 (bispecific antibody)
chain 1: NFMLTQPHSVSESPGKTVTISCTRTSGSIASNYVQWYQQRPGSSPTTVIYEDNQRPSGVPDRFSGSIDSSSNSASLTISGLKTEDEAAYYCQSYDRSNRVFGCGTKLTVLGGGGSGGGGSGGGGSGGGGSQVQLQESGPGLVKPSETLSLTCTVSGGSISSYYWSWIRQPAGKCLEWIGRIYTSGSTKYNPSLKSRVTMSVDTSKNQFSLKLISVTAADTAVYFCARERIRDLYFDYWGQGTLVTVSSDKTHTCPPCPAPEFEGGPSVFLFPPKPKDTLMISRTPEVTCVVVDVSHEDPEVKFNWYVDGVEVHNAKTKPREEQYNSTYRVVSVLTVLHQDWLNGKEYKCKVSNKALPASIEKTISKAKGQPREPQVYTLPPCREEMTKNQVSLWCLVKGFYPSDIAVEWESNGQPENNYKTTPPVLDSDGSFFLYSKLTVDKSRWQQGNVFSCSVMHEALHNHYTQKSLSLSPGK
chain 2: B1 chain 2
chain 3: B1 chain 3

What was measured:
[1] = target: T1, human CD3 (on human Pan-T cells or donor PBMC) (human, UniProt P07766 23-207; P04234 22-171; P09693 23-182; P20963 22-164); test: cell-based or functional assay
T1 sequence (P07766 23-207, chain 1 of 4): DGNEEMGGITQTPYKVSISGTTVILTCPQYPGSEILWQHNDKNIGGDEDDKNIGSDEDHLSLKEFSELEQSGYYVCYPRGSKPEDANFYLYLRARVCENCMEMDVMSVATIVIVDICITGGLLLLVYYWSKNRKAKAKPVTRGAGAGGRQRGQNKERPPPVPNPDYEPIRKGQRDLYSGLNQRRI
T1 sequence (P04234 22-171, chain 2 of 4): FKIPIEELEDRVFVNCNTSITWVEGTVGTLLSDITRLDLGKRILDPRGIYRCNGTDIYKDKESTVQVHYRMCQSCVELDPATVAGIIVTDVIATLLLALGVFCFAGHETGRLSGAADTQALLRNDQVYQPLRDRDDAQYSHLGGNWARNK
T1 sequence (P09693 23-182, chain 3 of 4): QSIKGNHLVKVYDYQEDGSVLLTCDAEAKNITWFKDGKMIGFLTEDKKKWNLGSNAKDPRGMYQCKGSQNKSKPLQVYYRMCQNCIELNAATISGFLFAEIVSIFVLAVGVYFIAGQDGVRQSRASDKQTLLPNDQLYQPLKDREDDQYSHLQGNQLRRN
T1 sequence (P20963 22-164, chain 4 of 4): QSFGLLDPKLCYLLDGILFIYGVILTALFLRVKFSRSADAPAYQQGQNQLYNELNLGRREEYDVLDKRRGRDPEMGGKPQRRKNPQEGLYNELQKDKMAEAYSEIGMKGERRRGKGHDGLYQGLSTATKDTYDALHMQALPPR

[2] = target: T1, human CD3 (on human Pan-T cells or …); test: cell-based or functional assay; remark: listed apart in the source

| Binder | Cytokine Release Assay (IFNγ), Donor 0, EC50 [1] [nM] | Cytokine Release Assay (IFNγ), Donor 0, gMFI max [1] [gMFI] | Cytokine Release Assay (IFNγ), Donor 1, gMFI max [1] [gMFI] | Cytokine Release Assay (IFNγ), Donor 2, EC50 [1] [nM] | Cytokine Release Assay (IFNγ), Donor 2, gMFI max [1] [gMFI] | Cytokine Release Assay (IFNγ), Donor 3, gMFI max [1] [gMFI] | RTCC Assay, Donor 0, EC50 [2] [nM] | RTCC Assay, Donor 0, gMFI max [2] [gMFI] | RTCC Assay, Donor 1, EC50 [2] [nM] | RTCC Assay, Donor 1, gMFI max [2] [gMFI] | RTCC Assay, Donor 2, EC50 [2] [nM] | RTCC Assay, Donor 2, gMFI max [2] [gMFI] | RTCC Assay, Donor 3, EC50 [2] [nM] | RTCC Assay, Donor 3, gMFI max [2] [gMFI] | Cytokine Release Assay (IFNγ), Donor 3, EC50 [1] [nM] | Cytokine Release Assay (IFNγ), Donor 1, EC50 [1] [nM] |
| --- | --- | --- | --- | --- | --- | --- | --- | --- | --- | --- | --- | --- | --- | --- | --- | --- |
| B1 | 0.0832 | 983000 | 8040 | 0.0468 | 31400 | 104000 | 0.102 | 29900 | 0.006 | 78200 | 0.028 | 64200 | 0.045 | 85600 |  |  |
| B2 | 0.191 | 1.71e+06 | 10800 | 0.126 | 31600 | 513000 | 0.147 | 34800 | 0.012 | 76900 | 0.034 | 62300 | 0.047 | 84000 | 0.0851 |  |
| B3 | 0.0418 | 1.6e+06 | 45100 | 0.0396 | 66800 | 475000 | 0.054 | 38700 | 0.006 | 63000 | 0.009 | 51900 | 0.011 | 82700 | 0.0403 | 0.191 |

Source: patent US20260167721A1 (ABLEXIS, published 2026)
